From publication PMC9945441
Values joined by “and” are separate entries in the source; they are usually repeats but may differ in a detail not shown here. Identical values can stand only once.

Legend:
[1] = molecular target: Thermodesulfatator indicus HARP, recombinant (Thermodesulfatator indicus); experiment: mass photometry
[2] = molecular target: Thermodesulfatator indicus HARP, recombinant (Thermodesulfatator indicus); experiment: SEC

Substance: Thermodesulfatator indicus HARP, recombinant (enzyme)
- stoichiometry N [1]: 2 and 4
- stoichiometry N [2]: < 12
